Laboratory results taken from US20190330277A1.

Assays:
[1] = biological target: 391-2-DS-Cav1-BZGJ9deleteFS; test: ELISA, variant from culture supernatant on Ni-NTA plate [continued]
[2] = biological target: 391-2-DS-Cav1_ sc9_I28C-G464C; test: ELISA, variant from culture supernatant on Ni-NTA plate
[3] = biological target: 391-2-DS-Cav1-sc9 99C-362C; test: as above
[4] = biological target: 391-2-DS-Cav1-sc9 99C-361C; test: as above
[5] = biological target: 391-2-DS-Cav1-sc9deleteFS 98C-362C; test: as above
[6] = biological target: RB94 sc9 DS-CAV1 N183GC-N428C L373R; test: as above
[7] = biological target: 391-2-DS-Cav1-sc9 100C-362C; test: as above
[8] = biological target: RB94 sc9 DS-CAV1 N183GC-N428C L373R Long; test: as above
[9] = biological target: 391-2 sc9 DS-Cav1 98C-362C; test: as above
[10] = biological target: RB94 sc9 DS-CAV1 N183GC-N428C L373R Long K226L; test: as above

## D25 antibody
[1]
  ELISA binding value: 0.119
[2]
  ELISA binding value: 0.202
[3]
  ELISA binding value: 0.249
[4]
  ELISA binding value: 0.225
[5]
  ELISA binding value: 0.362
[6]
  ELISA binding value: 0.187
[7]
  ELISA binding value: 0.274
[8]
  ELISA binding value: 0.26
[9]
  ELISA binding value: 0.433
[10]
  ELISA binding value: 0.206
